The Human Domainome abundance scans (Beltran et al. 2025)

B1: Far upstream element-binding protein 1, residues 98 to 169; numbered along this chain, Q96AE4 (parent)
chain: RSVMTEEYKVPDGMVGFIIGRGGEQISRIQQESGCKIQIAPDSGGLPERSCMLTGTPESVQSAKRLLDQIVE

Variants of: B1
Assay: abundance fitness (aPCA) (normalised: wild type 0, dead -1); higher = more abundant; growth selection in yeast, the domain comes from the species named
Conditions: Homo sapiens

Abundance fitness of substitutions, site by site:
R21: H -0.118 | Q 0.046 | S 0.035 | C -0.119 | V -0.11
G23: A -0.045 | Q -0.062 | E -0.011 | S -0.061 | W -0.101 | Y -0.072 | C -0.101 | V -0.157 | I -0.17 | D -0.051 | F -0.179 | T -0.127 | R -0.044 | H -0.159 | N -0.055 | L -0.174 | P -0.181 | M -0.037
A40: S -0.034 | Q -0.045 | Y -0.088 | G -0.039 | K -0.058 | C -0.023 | N -0.103 | M -0.032 | V -0.089 | F -0.101 | P -0.02 | T -0.024 | D -0.039 | R -0.064 | L -0.05
Q38: S -0.007 | P -0.844 | T -0.027 | C -0.005 | Y -0.138 | F -0.031 | G -0.09 | I 0.001 | A -0.017 | H -0.034 | W -0.049 | D -0.042 | K -0.041 | M -0.038 | E 0.023 | L -0.036 | R -0.032
S33: D -0.868 | C -0.158 | P -0.865 | M -0.414 | I -0.313 | T -0.034 | F -0.219 | L -0.325 | A -0.068 | H -0.308 | Y -0.435 | Q -0.431 | W -0.59 | G -0.522 | N -0.534
G34: H -0.051 | Q -0.086 | M -0.117 | D -0.094 | V -0.256 | E -0.06 | F -0.222 | T -0.124 | L -0.147 | R -0.071 | A -0.1 | I -0.316 | S -0.15 | P -0.837 | Y -0.269 | K -0.081 | W -0.364 | C -0.095
Q25: K -0.013 | V -0.07 | G -0.035 | S -0.023 | F -0.242 | A -0.088 | W -0.145 | C -0.054 | M -0.027 | H -0.021 | D -0.071 | L -0.108 | N -0.107 | R -0.016 | Y -0.132 | E 0.036
I19: Y -0.068 | Q -0.03 | V 0.012 | P -0.211 | T -0.018 | W -0.042 | R -0.038 | S -0.046
R28: Q -0.033 | D -0.016 | V -0.108 | H -0.021 | S -0.045 | M -0.083 | Y -0.131 | C -0.109 | L -0.071 | W -0.104 | F -0.168 | G -0.093 | T -0.068 | K -0.028 | E -0.058 | I -0.215 | N -0.102 | A -0.066
G22: D 0.005 | M -0.129 | L -0.099 | Q -0.014 | E -0.006 | K -0.001 | P -0.151 | C -0.103 | H -0.021 | Y -0.137 | N 0.048 | W -0.15 | F -0.105 | S -0.1 | I -0.09
I37: V -0.038 | H -0.775 | P -0.679 | L -0.087 | N -0.848 | R -1.05 | Y -0.963 | A -0.313 | F -0.25 | D -0.873 | Q -0.911 | S -0.788 | W -0.933 | T -0.48 | E -0.937 | K -0.911 | C -0.129 | M -0.081
P41: D 0.009 | A -0.044 | C -0.025 | E 0.005
